Data: article PMC10771525 (Communications Biology, 2024)
Read-outs that look alike come from different tables or passages of the source. Each block holds one molecule with its values, some of them ahead of it.

Experiments:
MTNR1A = assay: GPCR panel (control), Arrestin, CHO-K1; type: cell-based, human; conditions: reference agonist
MTNR1B = assay: GPCR panel (control), Arrestin, CHO-K1; type: cell-based, human; conditions: reference agonist
KISS1R = biological target: T1, KISS1R (Homo sapiens, UniProt Q969F8); assay: GPCR panel (control), Arrestin, U2OS; type: cell-based
T1 construct: expressed in transfected cells; host or cells: U2OS
T1 sequence (Q969F8 whole entry): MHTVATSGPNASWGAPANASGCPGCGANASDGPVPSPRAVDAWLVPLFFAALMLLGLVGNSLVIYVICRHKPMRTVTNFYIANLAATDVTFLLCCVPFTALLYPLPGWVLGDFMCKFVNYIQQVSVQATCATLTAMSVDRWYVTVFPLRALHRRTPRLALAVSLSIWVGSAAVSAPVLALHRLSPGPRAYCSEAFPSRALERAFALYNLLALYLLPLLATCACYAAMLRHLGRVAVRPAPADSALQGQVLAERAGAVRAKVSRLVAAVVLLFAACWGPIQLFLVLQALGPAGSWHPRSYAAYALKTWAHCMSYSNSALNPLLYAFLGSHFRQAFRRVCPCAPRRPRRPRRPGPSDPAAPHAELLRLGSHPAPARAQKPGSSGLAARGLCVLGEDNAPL

MRGPRX2 = biological target: T2, MRGPRX2 (Homo sapiens, UniProt Q96LB1); assay: calcium mobilization assay, CHEM-1 cells recombinantly expressing MRGPRX2; type: cell-based; parameters: host or cells: CHEM-1 adherent rat hematopoietic cells; conditions: for MRGPRX2 activation, Readout 1 / MRGPRX2 activation, Readout 2: Fig. 3b, fragment 1 µM, normalized to 1 µM CXCL14 (100%); for MRGPRX2 activation (in words): large CXCL14 fragments, CHEM1 cells overexpressing MRGPRX2; for EC50: Fluo-8, FLIPR, read-out: EC50, calcium mobilization assays; for pEC50: Fig. 3d
T2 sequence (Q96LB1 1-330): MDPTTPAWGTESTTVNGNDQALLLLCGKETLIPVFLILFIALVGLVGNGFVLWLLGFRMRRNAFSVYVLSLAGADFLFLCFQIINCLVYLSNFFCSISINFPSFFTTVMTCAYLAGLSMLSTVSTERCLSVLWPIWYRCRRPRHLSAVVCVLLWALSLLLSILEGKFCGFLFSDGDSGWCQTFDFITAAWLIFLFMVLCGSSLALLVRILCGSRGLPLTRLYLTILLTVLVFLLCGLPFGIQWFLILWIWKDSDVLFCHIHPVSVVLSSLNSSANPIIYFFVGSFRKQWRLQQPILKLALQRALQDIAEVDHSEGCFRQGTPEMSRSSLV
From the text: To confirm the initial results obtained in the β-arrestin recruitment assays, we established calcium mobilization assays in two different recombinant cell lines, CHEM-1 and LN229 cells, respectively. CHEM-1 cells are adherent rat hematopoietic cells with a high endogenous expression level of the promiscuous Gα15 protein enabling the measuring of calcium signaling of a large variety of GPCRs. […]. Subsequently, we employed recombinant human glioblastoma LN229 cells, a human cell line derived from glioblastoma multiforme tumors. […].
The cell lines CHEM1 and CHEM1-MRGPRX2 are adherent rat cell lines (HTSCHEM-1RTA, HTS058RTA, Merck-Millipore, Darmstadt, Germany); which were cultured under standard cell culture conditions.
A cell-based fluorometric assay was employed for the determination of intracellular calcium release using Fluo-8. Cells were seeded into microtiter plates and incubated under standard cell culture conditions. After 24 h the medium was removed, and the cells were washed with phosphate-buffered saline (PBS). The cells were incubated with loading buffer (40 ml PBS with 2 mM Ca^2+, 800 µl of brilliant black solution (2%), 732 µl of probenecid solution (0.5 M) in 1 N NaOH, 400 µL of pluronic (10%) in water, and 152 µl of Fluo-8 (5.7 ng/ml in water)) for 30 min. For fluorescence readout and compound testing a FLIPR tetra system was used according to the manufacture’s protocol (Molecular Devices, CA 94089- 1136, USA).

[1] = biological target: MRGPRX2 in CHEM-1 cells (human) (UniProt Q96LB1)
[2] = biological target: MRGPRX2 in the calcium mobilization assays of the small CXCL14 fragments and mutants (human) (UniProt Q96LB1)
[3] = biological target: MRGPRX2 fused to ProLink (PK), in CHO β-arrestin cells (human) (UniProt Q96LB1)
[4] = biological target: MRGPRX2 in the calcium mobilization assays of the small CXCL14 fragments and mutants (human) (UniProt Q96LB1); remark: listed apart in the source
[5] = biological target: T3, mouse MRGPRB2 in 1321N1 astrocytoma cells (mouse) (UniProt Q3KNA1)
T3 sequence: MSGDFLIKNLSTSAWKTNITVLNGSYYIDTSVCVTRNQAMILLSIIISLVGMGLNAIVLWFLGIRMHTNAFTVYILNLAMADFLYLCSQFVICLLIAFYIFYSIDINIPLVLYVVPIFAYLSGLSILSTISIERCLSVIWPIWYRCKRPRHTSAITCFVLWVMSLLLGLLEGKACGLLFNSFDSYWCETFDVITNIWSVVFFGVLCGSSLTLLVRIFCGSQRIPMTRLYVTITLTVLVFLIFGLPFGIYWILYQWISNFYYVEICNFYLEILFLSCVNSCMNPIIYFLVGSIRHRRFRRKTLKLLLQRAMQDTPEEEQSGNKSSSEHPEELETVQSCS

[6] = CHEM-1 cells recombinantly expressing MRGPRX2

Molecule: COc1ccc2[nH]c(I)c(CCNC(C)=O)c2c1 [2-Iodomelatonin]
EC50 (MTNR1A): 0.085 nM
EC80 (MTNR1A): 5.1 nM
EC50 (MTNR1B): 0.084 nM
EC80 (MTNR1B): 4.2 nM

Molecule: CC(C)C[C@H](NC(=O)CNC(=O)[C@H](Cc1ccccc1)NC(=O)[C@H](CO)NC(=O)[C@H](CC(N)=O)NC(=O)[C@H](Cc1c[nH]c2ccccc12)NC(=O)[C@H](CC(N)=O)NC(=O)[C@@H](N)Cc1ccc(O)cc1)C(=O)N[C@@H](CCCN=C(N)N)C(=O)N[C@@H](Cc1ccccc1)C(N)=O [Kisspeptin-10]
EC50 (KISS1R): 63 nM
EC80 (KISS1R; reference agonist, KISS1R, U2OS, Arrestin): 1100 nM

MRGPRX2 activation, Readout 1 (MRGPRX2): 0.3%
MRGPRX2 activation, Readout 2 (MRGPRX2): 0.6%
MRGPRX2 activation (in words) (MRGPRX2): inactive
Molecule: CXCL14(1-44): large CXCL14 fragment, inactive (SKCKCSRKGPKIRYSDVKKLEMKPKYPHCEEKMVIITTKSVSRY)

EC50, calcium mobilization, CHEM1 cells overexpressing MRGPRX2 [1]: 680 nM
Emax, calcium mobilization, CHEM1 cells overexpressing MRGPRX2, normalized to the maximal effect of CXCL14 [1]: 164%
B1: CXCL14(39-77) (domain or fragment)
chain: KSVSRYRGQEHCLHPKLQSTKRFIKWYNAWNEKRRVYEE

EC50, calcium mobilization, CHEM1 cells overexpressing MRGPRX2 [1]: 678 nM
Emax, calcium mobilization, CHEM1 cells overexpressing MRGPRX2, normalized to the maximal effect of CXCL14 [1]: 175%
B2: CXCL14(1-32/56-77) (domain or fragment)
chain: SKCKCSRKGPKIRYSDVKKLEMKPKYPHCEEKQSTKRFIKWYNAWNEKRRVYEE

MRGPRX2 activation, Readout 1 (MRGPRX2): 10%
MRGPRX2 activation, Readout 2 (MRGPRX2): 8%
MRGPRX2 activation (in words) (MRGPRX2): inactive
B3: CXCL14(1-56/64-77): largest inactive CXCL14 fragment, lacks STKRFIK (peptide)
chain: SKCKCSRKGPKIRYSDVKKLEMKPKYPHCEEKMVIITTKSVSRYRGQEHCLHPKLQWYNAWNEKRRVYEE

EC50, calcium mobilization, CHEM1 cells overexpressing MRGPRX2 [1]: 751 nM
EC50 (MRGPRX2; [6]): 751 nM
pEC50 (MRGPRX2; replicate column 1): 6.175
pEC50 (MRGPRX2; replicate column 2): 6.411
B4: CXCL14(15-77) (domain or fragment)
chain: SDVKKLEMKPKYPHCEEKMVIITTKSVSRYRGQEHCLHPKLQSTKRFIKWYNAWNEKRRVYEE

EC50, calcium mobilization, CHEM1 cells overexpressing MRGPRX2 [1]: 379 nM
Emax, calcium mobilization, CHEM1 cells overexpressing MRGPRX2, normalized to the maximal effect of CXCL14 [1]: 205%
improvement of potency compared to CXCL14 (MRGPRX2; [6]): 3 fold
EC50 (MRGPRX2; [6]): 379 nM
Emax, calcium mobilization assays (MRGPRX2; CHEM-1 cells recombinantly expressing MRGPRX2, normalized to the maximal effect of CXCL14): 205%
MRGPRX2 activation, Readout 1 (MRGPRX2): 203%
MRGPRX2 activation, Readout 2 (MRGPRX2): 208%
pEC50 (MRGPRX2; replicate column 1): 6.419
pEC50 (MRGPRX2; replicate column 2): 6.454
B5: CXCL14(1-11/18-77) (domain or fragment)
chain: SKCKCSRKGPKKKLEMKPKYPHCEEKMVIITTKSVSRYRGQEHCLHPKLQSTKRFIKWYNAWNEKRRVYEE

MRGPRX2 activation, Readout 1 (MRGPRX2): 36%
MRGPRX2 activation, Readout 2 (MRGPRX2): 38%
MRGPRX2 activation (in words) (MRGPRX2): inactive
B6: CXCL14(1-63): large CXCL14 fragment, inactive (peptide)
chain: SKCKCSRKGPKIRYSDVKKLEMKPKYPHCEEKMVIITTKSVSRYRGQEHCLHPKLQSTKRFIK

EC50, calcium mobilization at MRGPRX2 [2]: > 10000 nM
EC50, β-arrestin recruitment at MRGPRX2 [3]: 50400 nM
Emax, β-arrestin recruitment at MRGPRX2, normalized to the maximal effect of CXCL14 [3]: 53%
B7: CXCL14(57-63) (peptide)
peptide: STKRFIK

EC50, calcium mobilization at MRGPRX2 [4]: 2150 nM
Emax, calcium mobilization at MRGPRX2 [4]: 130%
EC50, calcium mobilization, 1321N1 astrocytoma cells expressing MRGPRB2 [5]: 2320 nM
Emax, calcium mobilization, 1321N1 astrocytoma cells expressing MRGPRB2 [5]: 117%
B8: CXCL14(60-65) (peptide)
peptide: RFIKWY

EC50, calcium mobilization at MRGPRX2 [4]: 316 nM
Emax, calcium mobilization at MRGPRX2 [4]: 155%
EC50, calcium mobilization, 1321N1 astrocytoma cells expressing MRGPRB2 [5]: 1260 nM
Emax, calcium mobilization, 1321N1 astrocytoma cells expressing MRGPRB2 [5]: 127%
B9: CXCL14(59-65) (peptide)
peptide: KRFIKWY
